# From patent publication US6218168A, “Process for preparing O-acetylserine, L-cysteine and L-cysteine-related products” (Consortium fur elektrochemische Inudstrie GmbH, priority 1995, dated 2001)
# Positions count from the first letter of the chain named.
# B1: cysEII: feedback-resistant serine acetyltransferase allele, Gly238->Ser238 (protein, UniProt P0A9D4 1-273, looked up, variant G238S)
# Serine acetyltransferase: MSCEELEIVWNNIKAEARTLADCEPMLASFYHATLLKHENLGSALSYMLANKLSSPIMPAIAIREVVEEAYAADPEMIASAACDIQAVRTRDPAVDKYSTPLLYLKGFHALQAYRIGHWLWNQGRRALAIFLQNQVSVTFQVDIHPAAKIGRGIMLDHATGIVVGETAVIENDVSILQSVTLGGTGKSGGDRHPKIREGVMIGAGAKILGNIEVGRGAKIGAGSVVLQPVPPHTTAASVPARIVGKPDSDKPSMDMDQHFNGINHTFEYGDGI
# B2: cysEIII: feedback-resistant serine acetyltransferase allele, Gly165->Asp165 (protein, UniProt P0A9D4 1-273, looked up, variant G165D)
# Serine acetyltransferase: B1 Serine acetyltransferase with G165D, S238G
# B3: cysE-Del257: carboxyterminal deletion of 16 amino acids, terminal Asp257 (protein, UniProt P0A9D4 1-257, looked up, fragment)
# chain: MSCEELEIVWNNIKAEARTLADCEPMLASFYHATLLKHENLGSALSYMLANKLSSPIMPAIAIREVVEEAYAADPEMIASAACDIQAVRTRDPAVDKYSTPLLYLKGFHALQAYRIGHWLWNQGRRALAIFLQNQVSVTFQVDIHPAAKIGRGIMLDHATGIVVGETAVIENDVSILQSVTLGGTGKSGGDRHPKIREGVMIGAGAKILGNIEVGRGAKIGAGSVVLQPVPPHTTAAGVPARIVGKPDSDKPSMDMD
# B4: cysE-Del259: carboxyterminal deletion of 14 amino acids, terminal His259 (protein, UniProt P0A9D4 1-259, looked up, fragment)
# chain: MSCEELEIVWNNIKAEARTLADCEPMLASFYHATLLKHENLGSALSYMLANKLSSPIMPAIAIREVVEEAYAADPEMIASAACDIQAVRTRDPAVDKYSTPLLYLKGFHALQAYRIGHWLWNQGRRALAIFLQNQVSVTFQVDIHPAAKIGRGIMLDHATGIVVGETAVIENDVSILQSVTLGGTGKSGGDRHPKIREGVMIGAGAKILGNIEVGRGAKIGAGSVVLQPVPPHTTAAGVPARIVGKPDSDKPSMDMDQH
# B5: cysE-Del248: carboxyterminal deletion of 25 amino acids, terminal Asp248 (protein, UniProt P0A9D4 1-248, looked up, fragment)
# chain: MSCEELEIVWNNIKAEARTLADCEPMLASFYHATLLKHENLGSALSYMLANKLSSPIMPAIAIREVVEEAYAADPEMIASAACDIQAVRTRDPAVDKYSTPLLYLKGFHALQAYRIGHWLWNQGRRALAIFLQNQVSVTFQVDIHPAAKIGRGIMLDHATGIVVGETAVIENDVSILQSVTLGGTGKSGGDRHPKIREGVMIGAGAKILGNIEVGRGAKIGAGSVVLQPVPPHTTAAGVPARIVGKPD
# B6: cysE-Del249: carboxyterminal deletion of 24 amino acids, terminal Ser249 (protein, UniProt P0A9D4 1-249, looked up, fragment)
# chain: MSCEELEIVWNNIKAEARTLADCEPMLASFYHATLLKHENLGSALSYMLANKLSSPIMPAIAIREVVEEAYAADPEMIASAACDIQAVRTRDPAVDKYSTPLLYLKGFHALQAYRIGHWLWNQGRRALAIFLQNQVSVTFQVDIHPAAKIGRGIMLDHATGIVVGETAVIENDVSILQSVTLGGTGKSGGDRHPKIREGVMIGAGAKILGNIEVGRGAKIGAGSVVLQPVPPHTTAAGVPARIVGKPDS
# B7: cysE-Del258: carboxyterminal deletion of 15 amino acids, terminal Gln258 (protein, UniProt P0A9D4 1-258, looked up, fragment)
# chain: MSCEELEIVWNNIKAEARTLADCEPMLASFYHATLLKHENLGSALSYMLANKLSSPIMPAIAIREVVEEAYAADPEMIASAACDIQAVRTRDPAVDKYSTPLLYLKGFHALQAYRIGHWLWNQGRRALAIFLQNQVSVTFQVDIHPAAKIGRGIMLDHATGIVVGETAVIENDVSILQSVTLGGTGKSGGDRHPKIREGVMIGAGAKILGNIEVGRGAKIGAGSVVLQPVPPHTTAAGVPARIVGKPDSDKPSMDMDQ
# B8: cysE-Del250: carboxyterminal deletion of 23 amino acids, terminal Asp250 (protein, UniProt P0A9D4 1-250, looked up, fragment)
# chain: MSCEELEIVWNNIKAEARTLADCEPMLASFYHATLLKHENLGSALSYMLANKLSSPIMPAIAIREVVEEAYAADPEMIASAACDIQAVRTRDPAVDKYSTPLLYLKGFHALQAYRIGHWLWNQGRRALAIFLQNQVSVTFQVDIHPAAKIGRGIMLDHATGIVVGETAVIENDVSILQSVTLGGTGKSGGDRHPKIREGVMIGAGAKILGNIEVGRGAKIGAGSVVLQPVPPHTTAAGVPARIVGKPDSD
# B9: cysE-Del256: carboxyterminal deletion of 17 amino acids, terminal Met256 (protein, UniProt P0A9D4 1-256, looked up, fragment)
# chain: MSCEELEIVWNNIKAEARTLADCEPMLASFYHATLLKHENLGSALSYMLANKLSSPIMPAIAIREVVEEAYAADPEMIASAACDIQAVRTRDPAVDKYSTPLLYLKGFHALQAYRIGHWLWNQGRRALAIFLQNQVSVTFQVDIHPAAKIGRGIMLDHATGIVVGETAVIENDVSILQSVTLGGTGKSGGDRHPKIREGVMIGAGAKILGNIEVGRGAKIGAGSVVLQPVPPHTTAAGVPARIVGKPDSDKPSMDM
# Target: serine acetyltransferase
# Experiment: Serine acetyltransferase enzyme activity test with and without L-cysteine (inhibitor constant Ki, specific activity)
# Type: biochemical, E. coli
# Conditions: Table 1a; inhibitor L-cysteine; 1 mM L-serine, 0.1 mM acetyl-CoA
# Excerpt: Any method which enables the activity of the serine acetyltransferase to be determined in the presence of cysteine can be used for determining the cysteine sensitivity of this enzyme. For example, the serine acetyltransferase activity can be determined using the method described by Kredich and Tomkins, J. Biol. Chem. 241: 4955-4965 (1966). In this test, the enzyme test mixture contains the substrate, L-serine, and the cofactor, acetyl-coenzyme A. The reaction is started by adding enzyme and monitored, in a spectro photometer, by observing the decrease in absorption at 232 nm which is elicited by the cleavage of the thioester bond in the acetyl-coenzyme A.
# The above-described enzyme test is suitable for determining the cysteine sensitivity of any serine acetyltransferase enzyme, including the enzymes which have a modified carboxyl terminus. Inhibition of the serine acetyltransferase activity is tested in the presence of differing concentrations of L-cysteine in the reaction mixture. The catalytic activity of the different serine acetyltransferase enzymes is determined in the presence and absence of L-cysteine, and the inhibitor constant, Ki, is ascertained from this (Kredich and Tomkins, J. Biol. Chem., 241, 4955-4965 (1966)).
# In order to investigate the biochemical basis of the cysteine secretion of the revertants, the activity of the serine acetyltransferase was determined in vitro, and the ability of cysteine to inhibit the enzyme was measured. For the determination, use was made of S30 extracts (cell homogenates centrifuged at 30,000 g and 4° C. for 20 minutes) of the selected revertants, the starting strains and the comparison strain, E. coli W3110 (ATTC 27325).
# The biochemical parameters such as enzyme activity and inhibitor constant, Ki, were determined in an analogous manner to that described in Example 1.
# The plasmids resulting from this cloning were designated pACYC184/cysE-Del in accordance with the extent of their deletion (cf. FIG. 9 for the plasmid map). Determination of the enzymic activity and the inhibitor constant, Ki, and also the cross-feeding test, were carried out in analogy with the description in Example 1. DNA sequence analysis was used to confirm that the deletions had been correctly introduced.
# Determination of the enzymic activity and of the inhibitor constant Ki, and also the cross-feeding test, were carried out in analogy with the description in Example 1.
row,Molecule,Ki [µM]
1,B1,10
2,B2,10

# Same assay, conditions: Table 1a; serine acetyltransferase activity
row,Molecule,spec. act. [µmol/min/mg]
1,B1,0.068
2,B2,0.030

# Same assay, conditions: Table 1b; carboxyterminal deletions
row,Molecule,spec. act. [μmol/min x mg]
1,B3,0.394
2,B4,0.328
3,B5,0.270
4,B6,0.420
5,B7,0.256
6,B8,0.405
7,B9,0.366

# Same assay, conditions: Table 1b; carboxyterminal deletions; inhibitor L-cysteine
row,Molecule,Ki [µM]
1,B3,7.5
2,B4,7.5
3,B5,12.5
4,B6,15
5,B7,5
6,B8,20
7,B9,12.5

# Same assay, conditions: Table 2; alleles from chemical mutagenesis; inhibitor L-cysteine
row,Molecule,Ki [µM]
1,B1,10
2,B2,10

# Same assay, conditions: Table 6; carboxyterminal deletions; inhibitor L-cysteine
row,Molecule,Ki [µM]
1,B3,7.5
2,B4,7.5
3,B5,12.5
4,B6,15
5,B7,5
6,B8,20
7,B9,12.5
